Experimental data as given in US10450368.

Legend:
RNP (ribonucleoprotein) [1] = assay: AtheNA, Ab 6.25 ug/ml
Scl-70 [2] = target: Scl-70 (UniProt P11387); assay: AtheNA, Ab 6.25 ug/ml
SSB [3] = target: SSB (UniProt P05455); assay: AtheNA, Ab 6.25 ug/ml
Centromere B [4] = target: Centromere B (UniProt P07199); assay: AtheNA, Ab 6.25 ug/ml
Jo-1 [5] = target: Jo-1 (UniProt P12081); assay: AtheNA, Ab 6.25 ug/ml
SSA [6] = assay: AtheNA, Ab 6.25 ug/ml
Histones [7] = assay: AtheNA, Ab 6.25 ug/ml
Sm (Smith antigen) [8] = assay: AtheNA, Ab 6.25 ug/ml
RNP (ribonucleoprotein) [9] = assay: AtheNA, Ab 25 ug/ml
SSB [10] = target: SSB (UniProt P05455); assay: AtheNA, Ab 25 ug/ml
Centromere B [11] = target: Centromere B (UniProt P07199); assay: AtheNA, Ab 25 ug/ml
Jo-1 [12] = target: Jo-1 (UniProt P12081); assay: AtheNA, Ab 25 ug/ml
SSA [13] = assay: AtheNA, Ab 25 ug/ml
Histones [14] = assay: AtheNA, Ab 25 ug/ml
Sm (Smith antigen) [15] = assay: AtheNA, Ab 25 ug/ml
RNP (ribonucleoprotein) [16] = assay: AtheNA, Ab 12.5 ug/ml
Scl-70 [17] = target: Scl-70 (UniProt P11387); assay: AtheNA, Ab 12.5 ug/ml
SSB [18] = target: SSB (UniProt P05455); assay: AtheNA, Ab 12.5 ug/ml
Centromere B [19] = target: Centromere B (UniProt P07199); assay: AtheNA, Ab 12.5 ug/ml
Jo-1 [20] = target: Jo-1 (UniProt P12081); assay: AtheNA, Ab 12.5 ug/ml
SSA [21] = assay: AtheNA, Ab 12.5 ug/ml
Histones [22] = assay: AtheNA, Ab 12.5 ug/ml
Sm (Smith antigen) [23] = assay: AtheNA, Ab 12.5 ug/ml
RNP (ribonucleoprotein) [24] = assay: AtheNA, Ab 25 ug/ml; remark: listed apart in the source
Scl-70 [25] = target: Scl-70 (UniProt P11387); assay: AtheNA, Ab 25 ug/ml
SSB [26] = target: SSB (UniProt P05455); assay: AtheNA, Ab 25 ug/ml; remark: listed apart in the source
Centromere B [27] = target: Centromere B (UniProt P07199); assay: AtheNA, Ab 25 ug/ml; remark: listed apart in the source
Jo-1 [28] = target: Jo-1 (UniProt P12081); assay: AtheNA, Ab 25 ug/ml; remark: listed apart in the source
SSA [29] = assay: AtheNA, Ab 25 ug/ml; remark: listed apart in the source
Histones [30] = assay: AtheNA, Ab 25 ug/ml; remark: listed apart in the source
Sm (Smith antigen) [31] = assay: AtheNA, Ab 25 ug/ml; remark: listed apart in the source
CH505.M11D8gp120/293F = assay: direct-binding ELISA
[32] = target: CH505w136.B5D8gp120 (HIV-1); assay: direct-binding ELISA
[33] = target: CH505w160.C2D8gp120 (HIV-1); assay: direct-binding ELISA
[34] = target: CH505_w137V201B12.D11gp120 (HIV-1); assay: direct-binding ELISA
[35] = target: CH505w160.C14D8gp120 (HIV-1); assay: direct-binding ELISA
CH505.M9D8gp120/293F = assay: direct-binding ELISA
CH505.M5D8gp120293F = assay: direct-binding ELISA
[36] = target: CH505w136.B18D8gp120 (HIV-1); assay: direct-binding ELISA
[37] = target: CH505w136.B27D8gp120 (HIV-1); assay: direct-binding ELISA
[38] = target: CH505w136.B10D8gp120 (HIV-1); assay: direct-binding ELISA
[39] = target: CH505w136.B29D8gp120 (HIV-1); assay: direct-binding ELISA
[40] = target: CH505_w137V209C12.D11gp120 (HIV-1); assay: direct-binding ELISA
[41] = target: CH505w160.C4D8gp120 (HIV-1); assay: direct-binding ELISA
CH505.M10D8gp120 = assay: direct-binding ELISA
[42] = target: CH505w136.B20D8gp120 (HIV-1); assay: direct-binding ELISA
[43] = target: CH505w160.D5D8gp120/293F (HIV-1); assay: direct-binding ELISA
[44] = target: CH505w136.B4D8gp120 (HIV-1); assay: direct-binding ELISA
[45] = target: CH505w136.B2D8gp120/293F (HIV-1); assay: direct-binding ELISA
[46] = target: CH505w136.B8D8gp120 (HIV-1); assay: direct-binding ELISA
[47] = target: CH505.TF mutant gp120 M20 (HIV-1); assay: direct-binding ELISA
[48] = target: CH505w136.B3D8gp120/293F (HIV-1); assay: direct-binding ELISA
[49] = target: CH505w160.T4D8gp120/293F (HIV-1); assay: direct-binding ELISA
CH505.M7D8gp120/293F = assay: direct-binding ELISA
[50] = target: CH505w160.C12D8gp120 (HIV-1); assay: direct-binding ELISA
CH505.M19D8gp120 = assay: direct-binding ELISA
[51] = target: CH505w160.T2D8gp120 (HIV-1); assay: direct-binding ELISA
[52] = target: CH505.TF mutant gp120 M8 (HIV-1); assay: direct-binding ELISA
[53] = target: CH505w160.D1D8gp120 (HIV-1); assay: direct-binding ELISA
[54] = target: CH505w136.B12D8gp120 (HIV-1); assay: direct-binding ELISA
[55] = target: CH505w136.B36D8gp120 (HIV-1); assay: direct-binding ELISA
[56] = target: CH505.TF mutant gp120 M6 (HIV-1); assay: direct-binding ELISA
CH505.M21D8gp120/293F = assay: direct-binding ELISA
[57] = target: CH505w160.A1D8gp120 (HIV-1); assay: direct-binding ELISA
[58] = target: CH505w160.C11D8gp120 (HIV-1); assay: direct-binding ELISA

Sequence of SSB (P05455 whole entry): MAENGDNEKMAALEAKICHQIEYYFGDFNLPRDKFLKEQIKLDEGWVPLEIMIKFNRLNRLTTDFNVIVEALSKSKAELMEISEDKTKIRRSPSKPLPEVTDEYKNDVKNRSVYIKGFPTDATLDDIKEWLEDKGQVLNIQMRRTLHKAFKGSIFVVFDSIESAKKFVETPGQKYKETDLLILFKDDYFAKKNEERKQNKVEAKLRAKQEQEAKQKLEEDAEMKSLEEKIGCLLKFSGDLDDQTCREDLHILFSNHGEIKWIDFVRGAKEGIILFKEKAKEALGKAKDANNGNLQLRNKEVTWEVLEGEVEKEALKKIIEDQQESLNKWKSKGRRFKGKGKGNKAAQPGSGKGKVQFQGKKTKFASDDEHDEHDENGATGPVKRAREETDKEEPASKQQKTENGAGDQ
Sequence of Jo-1 (P12081 whole entry): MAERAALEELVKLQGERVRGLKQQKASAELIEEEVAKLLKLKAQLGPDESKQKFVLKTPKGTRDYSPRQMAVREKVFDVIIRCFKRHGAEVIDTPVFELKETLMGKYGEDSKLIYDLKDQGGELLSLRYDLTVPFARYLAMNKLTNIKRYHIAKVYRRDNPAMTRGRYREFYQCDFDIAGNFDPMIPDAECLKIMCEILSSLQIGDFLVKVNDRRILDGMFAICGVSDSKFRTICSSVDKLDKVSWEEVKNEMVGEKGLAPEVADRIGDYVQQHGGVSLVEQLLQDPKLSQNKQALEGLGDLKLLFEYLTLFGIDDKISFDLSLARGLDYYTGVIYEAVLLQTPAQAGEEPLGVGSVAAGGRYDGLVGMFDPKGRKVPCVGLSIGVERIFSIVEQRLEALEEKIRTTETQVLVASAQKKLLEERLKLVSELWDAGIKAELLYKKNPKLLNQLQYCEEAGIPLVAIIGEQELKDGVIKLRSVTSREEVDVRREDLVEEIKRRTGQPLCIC
Sequence of Scl-70 (P11387 whole entry): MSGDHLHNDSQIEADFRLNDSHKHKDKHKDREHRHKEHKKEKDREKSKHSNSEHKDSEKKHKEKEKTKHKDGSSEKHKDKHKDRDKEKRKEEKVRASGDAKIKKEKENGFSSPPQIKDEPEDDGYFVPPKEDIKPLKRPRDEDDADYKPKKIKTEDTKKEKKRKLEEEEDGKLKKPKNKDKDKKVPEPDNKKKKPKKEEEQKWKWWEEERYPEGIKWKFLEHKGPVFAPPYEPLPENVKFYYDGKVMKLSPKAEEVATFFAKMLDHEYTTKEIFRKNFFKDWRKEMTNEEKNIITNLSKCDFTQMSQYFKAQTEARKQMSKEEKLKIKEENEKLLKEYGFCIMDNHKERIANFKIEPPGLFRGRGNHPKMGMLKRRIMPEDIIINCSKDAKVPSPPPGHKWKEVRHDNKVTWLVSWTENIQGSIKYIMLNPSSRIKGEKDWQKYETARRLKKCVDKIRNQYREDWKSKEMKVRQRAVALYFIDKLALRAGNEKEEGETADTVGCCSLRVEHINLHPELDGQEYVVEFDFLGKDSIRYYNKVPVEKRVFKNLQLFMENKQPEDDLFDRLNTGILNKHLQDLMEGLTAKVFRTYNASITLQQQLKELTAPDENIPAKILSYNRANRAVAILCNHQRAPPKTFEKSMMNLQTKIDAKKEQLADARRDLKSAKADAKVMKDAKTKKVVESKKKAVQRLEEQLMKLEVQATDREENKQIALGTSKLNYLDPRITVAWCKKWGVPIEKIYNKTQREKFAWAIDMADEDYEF
Sequence of Centromere B (P07199 whole entry): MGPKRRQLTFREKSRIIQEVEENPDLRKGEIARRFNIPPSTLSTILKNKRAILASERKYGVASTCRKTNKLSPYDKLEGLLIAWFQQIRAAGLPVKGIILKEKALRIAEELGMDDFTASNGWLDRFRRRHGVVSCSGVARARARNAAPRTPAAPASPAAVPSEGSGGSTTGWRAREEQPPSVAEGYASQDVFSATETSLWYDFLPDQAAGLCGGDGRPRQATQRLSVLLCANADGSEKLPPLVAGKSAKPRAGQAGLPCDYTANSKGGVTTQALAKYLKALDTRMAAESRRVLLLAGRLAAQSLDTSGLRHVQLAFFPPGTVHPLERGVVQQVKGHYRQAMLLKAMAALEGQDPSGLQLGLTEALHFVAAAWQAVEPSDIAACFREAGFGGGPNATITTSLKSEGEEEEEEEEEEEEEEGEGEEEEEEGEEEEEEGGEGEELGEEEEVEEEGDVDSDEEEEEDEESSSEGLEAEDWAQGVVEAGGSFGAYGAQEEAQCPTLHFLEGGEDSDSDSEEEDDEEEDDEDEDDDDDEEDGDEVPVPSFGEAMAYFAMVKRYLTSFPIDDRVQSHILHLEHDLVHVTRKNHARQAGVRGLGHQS

synagis (antibody)
AtheNA signal (relative luminescence units) (RNP (ribonucleoprotein) [1]): 3 | AtheNA signal (relative luminescence units) (Scl-70 [2]): 2 | AtheNA signal (relative luminescence units) (SSB [3]): 5 | AtheNA signal (relative luminescence units) (Centromere B [4]): 2 | AtheNA signal (relative luminescence units) (Jo-1 [5]): 1 | AtheNA signal (relative luminescence units) (SSA [6]): 2 | AtheNA signal (relative luminescence units) (Histones [7]): 3 | AtheNA signal (relative luminescence units) (Sm (Smith antigen) [8]): 2 | AtheNA signal (relative luminescence units) (RNP (ribonucleoprotein) [9]): 0 | AtheNA signal (relative luminescence units) (SSB [10]): 4 | AtheNA signal (relative luminescence units) (Centromere B [11]): 2 | AtheNA signal (relative luminescence units) (Jo-1 [12]): 4 | AtheNA signal (relative luminescence units) (SSA [13]): 11 | AtheNA signal (relative luminescence units) (Histones [14]): 2 | AtheNA signal (relative luminescence units) (Sm (Smith antigen) [15]): 4 | AtheNA signal (relative luminescence units) (RNP (ribonucleoprotein) [16]): 3 | AtheNA signal (relative luminescence units) (Scl-70 [17]): 3 | AtheNA signal (relative luminescence units) (SSB [18]): 5 | AtheNA signal (relative luminescence units) (Centromere B [19]): 2 | AtheNA signal (relative luminescence units) (Jo-1 [20]): 6 | AtheNA signal (relative luminescence units) (SSA [21]): 2 | AtheNA signal (relative luminescence units) (Histones [22]): 3 | AtheNA signal (relative luminescence units) (Sm (Smith antigen) [23]): 7 | AtheNA signal (relative luminescence units) (RNP (ribonucleoprotein) [24]): 4 | AtheNA signal (relative luminescence units) (Scl-70 [25]): 2 | AtheNA signal (relative luminescence units) (SSB [26]): 7 | AtheNA signal (relative luminescence units) (Centromere B [27]): 4 | AtheNA signal (relative luminescence units) (Jo-1 [28]): 2 | AtheNA signal (relative luminescence units) (SSA [29]): 3 | AtheNA signal (relative luminescence units) (Histones [30]): 5 | AtheNA signal (relative luminescence units) (Sm (Smith antigen) [31]): 3

CH248 (antibody)
LogAUC (CH505.M11D8gp120/293F): 13.6 | LogAUC [32]: 14.6 | LogAUC [33]: 11.1 | LogAUC [34]: 13.4 | LogAUC [35]: 10.3 | LogAUC (CH505.M9D8gp120/293F): 13 | LogAUC (CH505.M5D8gp120293F): 11 | LogAUC [36]: 14.3 | LogAUC [37]: 12.9 | LogAUC [38]: 11.5 | LogAUC [39]: 12.3 | LogAUC [40]: 14.7 | LogAUC [41]: 10.5 | LogAUC (CH505.M10D8gp120): 13.8 | LogAUC [42]: 12.9 | LogAUC [43]: 7.84 | LogAUC [44]: 13.4 | LogAUC [45]: 13.4 | LogAUC [46]: 12.3 | LogAUC [47]: 13.2 | LogAUC [48]: 14 | LogAUC [49]: 13.5 | LogAUC (CH505.M7D8gp120/293F): 12.4 | LogAUC [50]: 12.9 | LogAUC (CH505.M19D8gp120): 13.2 | LogAUC [51]: 8.34 | LogAUC [52]: 12.3 | LogAUC [53]: 8.75 | LogAUC [54]: 12.9 | LogAUC [55]: 14.4 | LogAUC [56]: 13.6 | LogAUC (CH505.M21D8gp120/293F): 13.8 | LogAUC [57]: 8.62 | LogAUC [58]: 10.7

CH105 (antibody)
LogAUC (CH505.M11D8gp120/293F): 11.7 | LogAUC [32]: 10.6 | LogAUC [33]: 8.61 | LogAUC [34]: 11 | LogAUC [35]: 6.58 | LogAUC (CH505.M9D8gp120/293F): 10.6 | LogAUC (CH505.M5D8gp120293F): 8.63 | LogAUC [36]: 13.7 | LogAUC [37]: 10.4 | LogAUC [38]: 8.52 | LogAUC [39]: 10.2 | LogAUC [40]: 12.7 | LogAUC [41]: 6.55 | LogAUC (CH505.M10D8gp120): 11.3 | LogAUC [42]: 10.7 | LogAUC [43]: 4.58 | LogAUC [44]: 10.7 | LogAUC [45]: 12.4 | LogAUC [46]: 9.86 | LogAUC [47]: 10.6 | LogAUC [48]: 12 | LogAUC [49]: 12.2 | LogAUC (CH505.M7D8gp120/293F): 10.2 | LogAUC [50]: 11.1 | LogAUC (CH505.M19D8gp120): 10.9 | LogAUC [51]: 4.94 | LogAUC [52]: 9.33 | LogAUC [53]: 6.03 | LogAUC [54]: 9.67 | LogAUC [55]: 12.8 | LogAUC [56]: 11.1 | LogAUC (CH505.M21D8gp120/293F): 11.2 | LogAUC [57]: 6.66 | LogAUC [58]: 7.7
